According to FireProtDB (doi:10.1110/ps.8.9.1843):

B1: Guanyl-specific ribonuclease T1, P00651 (parent)
chain: MMYSKLLTLTTLLLPTALALPSLVERACDYTCGSNCYSSSDVSTAQAAGYQLHEDGETVGSNSYPHKYNNYEGFDFSVSSPYYEWPILSSGDVYSGGSPGADRVVFNENNQLAGVITHTGASGNNFVECT
B2: Guanyl-specific ribonuclease Sa, P05798 (parent)
chain: DVSGTVCLSALPPEATDTLNLIASDGPFPYSQDGVVFQNRESVLPTQSYGYYHEYTVITPGARTRGTRRIITGEATQEDYYTGDHYATFSLIDQTC

How the values were obtained:
[1] = variants of: B1; details: Aspergillus oryzae (strain ATCC 42149 / RIB 40), 25 °C, Urea, CD, structure 1RN1, whole UniProt chain shown
[2] = variants of: B2; details: Kitasatospora aureofaciens; pH 7; Thermal; CD; MOPS 30 mM; structure 1RGG; whole UniProt chain shown

Row | Variant | denaturant m value ([1]; pH 2.5, glycine 30 mM) [kcal/mol/M] | denaturant midpoint (higher = more stable) ([1]; pH 2.5, glycine 30 mM) [M] | denaturant m value ([1]; pH 7, MOPS 30 mM) [kcal/mol/M] | denaturant midpoint (higher = more stable) ([1]; pH 7, MOPS 30 mM) [M] | Tm [2] [°C] | unfolding enthalpy (van 't Hoff) [2] [kcal/mol]
1 | MMYSKLLTLTTLLLPTALALPSLVERACDYTCGSNCYSSSDVSTAQAAGYQLHEDGETVGSNSYPHKYNNYEGFAFSVSSPYYEWPILSSGDVYSGGSPGADRVVFNENNQLAGVITHTGASGNNFVECT [D75A] | 1.69 | 3.42 | 1.21 | 5.67 |  | 
2 | DVSGTVCLSALPPEATDTLNLIASKGPFPYSQDGVVFQNRESVLPTQSYGYYHEYTVITPGARTRGTRRIITGEATQEDYYTGDHYATFSLIDQTC [D25K] |  |  |  |  | 50.2 | 93
3 | DVSGTVCLSALPPEATDTLNLIASDGPFPYSQDGVVFQNRESVLPTQSYGYYHEYTVITPGARTRGTRRIITGKATQEDYYTGDHYATFSLIDQTC [E74K] |  |  |  |  | 51.1 | 94
